According to patent US20250296992A1 (Genmab, published 2025):
Where a chain is given by its changes, count along the chain named.

B1: hu14G1-03 (antibody, V domains shown)
VH: EVQLVESGGGLVQPGGSLRLSCAASGFTFSDYGMHWVRQAPGKGLEWVSYISPGSSTIYYADTMKGRFTISRDNAKNSLYLQMNSLRAEDTAVYYCARAYGGSYWYFAVWGQGTLVTVSS
VL: DIQMTQSPSSLSASVGDRVTITCRASGNIHSYLAWYQQKPGKSPQLLVYNAKTLADGVPSRFSGSGSGTDYTLTISSLQPEDFGTYYCQHFWSTPYTFGGGTKLEIK
B2: hu1H2-03 (antibody, V domains shown)
VH: EVQLVESGGGLVQPGGSLRLSCAASGFTFSDYGLHWVRQAPGKGLEWVSYISSGSSTVYFADTLKGRFTISRDNAKNSLYLQMNSLRAEDTAVYYCTRGTWYFDVWGRGTLVTVSS
VL: B1 VL with A25T, G27E, Y86F, S93T, P95S, Y96R, L104V
notes: see m20
B3: hu1H2-13 (antibody, V domains shown)
VH: B2 VH with S49A
VL: B1 VL with A25T, G27E, Y86F, S93T, P95S, Y96R, L104V
B4: Sirtratumab-LD038 (8) (antibody, V domains shown)
VH: QVQLVESGGGVVQPGRSLRLSCAASGFTFSSYGMHWVRQAPGKGLEWVAVIWYDGSNQYYADSVKGRFTISRDNSKNTLFLQMHSLRAEDTAVYYCARGLTSGRYGMDWGQGTTVTVSS
VL: DIVMTQSPLSLPVTPGEPASISCRSSQSLLLSHGFNYLDWYLQKPGQSPQLLIYLGSSRASGVPDRFSGSGSGTDFTLKISRVEAEDVGLYYCMQPLQIPWTFGQGTKVEIK
modifications: drug-linker LD038 on cysteines freed by TCEP reduction, DAR 8.0; positions not given
notes: also called Sirtratumab ADC
B5: hu1H2-03-LD038 (8) (antibody, V domains shown)
VH: B2 VH
VL: B1 VL with A25T, G27E, Y86F, S93T, P95S, Y96R, L104V
modifications: drug-linker LD038 on cysteines freed by TCEP reduction, DAR 8.0; positions not given
notes: also called hu1H2-03 ADC
B6: hu14G1-03-LD038 (8) (antibody, V domains shown)
VH: B1 VH
VL: B1 VL
modifications: drug-linker LD038 on cysteines freed by TCEP reduction, DAR 8.0; positions not given
notes: also called hu14G1-03 ADC
B7: hu1H2-13-LD038 (8) (antibody, V domains shown)
VH: B2 VH with S49A
VL: B1 VL with A25T, G27E, Y86F, S93T, P95S, Y96R, L104V
modifications: drug-linker LD038 on cysteines freed by TCEP reduction, DAR 8.0; positions not given
notes: also called hu1H2-13 ADC
B8: phA108-LD038 (8) (antibody, V domains shown)
VH: QVQLVQSGAEVKKPGASVKVSCTASGYIFNDYYLHWVRQAPGQGLEWVGIINPSGGSPVYAQKFQGRVTMTRDTSTNTVYMELSSLRSEDTAVYYCARGMVRGVRLFDYWGQGTLVTVSA
VL: EIVLTQSPATLSLSPGERATLSCRASQSVSSYLAWYQQKPGQTPRLLIYDASNRATGVPARFSGSGSGTDFTLTISSLETEDFAVYYCQQRTNWPLTFGGGTKVEIK
modifications: drug-linker LD038 on cysteines freed by TCEP reduction, DAR 8.0; positions not given
notes: also called phA108 ADC
B9: phA290-LD038 (8) (antibody, V domains shown)
VH: QVQLVQSGAEVKKPGASVKVSCKASGYTFTSYYMHWVRQAPGQGLEWMGIINPSGGSTSYAQKFQGRVTMTRDTSTSTVYMELSSLRSEDTAVYYCARGFTRYFDYWGQGTLVTVSA
VL: B8 VL with L4M, A9G, S31K, K39R, T43A, V58I, I75V, T80P, T92Y, K103T
modifications: drug-linker LD038 on cysteines freed by TCEP reduction, DAR 8.0; positions not given
notes: also called phA290 ADC
B10: hu1H2-03-LD343 (8) (antibody, V domains shown)
VH: B2 VH
VL: B1 VL with A25T, G27E, Y86F, S93T, P95S, Y96R, L104V
modifications: drug-linker LD343 on cysteines freed by TCEP reduction, DAR 8.0; positions not given

molecular target: T1, human SLITRK6 extracellular domain linked to his tag (human, UniProt Q9H5Y7 27-608); assay: BLI binning on huSLITRK6-his; Ab1 = row antibody first, then Ab2 (competitor) = Sirtratumab
T1 construct: extracellular domain; also called huSLITRK6; Hu SLITRK6; not shown: his tag

epitope binning signal | Binder
0.293 | B1
0.299 | B2
0.312 | B3

molecular target: T2, human SLITRK6 on cells (human, UniProt Q9H5Y7 27-841); assay: cell-based or functional assay

Binder | IC50 (nM), cytotoxicity on 293F-SLITRK6-C9 cells (Cell Titer-Glo) [nM] | IC50 (nM), cytotoxicity on CHP-212 cells (Cell Titer-Glo) [nM] | IC50 (nM), cytotoxicity on RT4 cells (Cell Titer-Glo) [nM]
B4 | 0.06 | 5.56 | 9.25
B5 |  | 0.83 | 7.02
B6 |  | 0.91 | 9.56
B7 | 0.06 | 0.93 | 5.06
B8 | 0.06 | 2.82 | 7.29
B9 |  | 1.22 | 5.9

molecular target: T2, human SLITRK6 on cells; assay: flow cytometry on CHP-212 cells
Protocol: (§1) The binding activity of mAbs was evaluated by flow cytometer (Beckman, Cytoflex). Specifically, cells were incubated with 50 μL of mAbs or ADCs in series dilutions in PBS containing 1% BSA at 4° C. for 30 minutes. The cells were washed twice with PBS containing 1% BSA, stained with PE-conjugated anti human Fc in PBS containing 1% BSA and then incubated at 4° C. for 20 min. After that the cells were washed twice with PBS and analyzed by a flow cytometer.

EC50 [nM] | Binder
0.33 | B1
0.22 | B2
0.22 | B3

molecular target: T2, human SLITRK6 on cells; assay: flow cytometry on RT4 cells
Protocol: (§2) The binding activity of mAbs and ADCs was evaluated by flow cytometer (Beckman, Cytoflex). Specifically, cells were incubated with 50 μL of mAbs or ADCs in series dilutions in PBS containing 1% BSA at 4° C. for 30 min. The cells were washed twice with PBS containing 1% BSA, stained with PE-conjugated anti human Fc in PBS containing 1% BSA and then incubated at 4° C. for 20 min. After that the cells were washed twice with PBS and analyzed by a flow cytometer.

EC50 [nM] | Binder
0.31 | B4
0.47 | B5
0.38 | B1
0.36 | B2
0.46 | B6
0.38 | B7
0.27 | B3
0.16 | B8
0.16 | B9

molecular target: T2, human SLITRK6 on cells; assay: flow cytometry on RT4 cells, PE-conjugated anti-human Fc
Protocol: as §2

EC50 (read off the curve) [nM] | Binder
~0.4 | B10

molecular target: T2, human SLITRK6 on cells; assay: flow cytometry on RT4 cells; remark: another data set of the same source
Protocol: as §1

EC50 [nM] | Binder
0.32 | B1
0.28 | B2
0.27 | B3

molecular target: T2, human SLITRK6 on cells; assay: flow cytometry on SW780 cells, PE-conjugated anti-human Fc
Protocol: as §2

EC50 (read off the curve) [nM] | Binder
~0.3 | B10

molecular target: T2, human SLITRK6 on cells; assay: flow cytometry on SW780 cells
Protocol: as §2

EC50 [nM] | Binder
0.38 | B4
0.44 | B5
0.62 | B1
0.44 | B2
0.64 | B6
0.61 | B7
0.44 | B3
0.29 | B8
0.27 | B9

molecular target: T1, human SLITRK6 extracellular domain …; assay: BLI binning on huSLITRK6-his; Ab1 = row antibody first, then Ab2 (competitor) = hu14G1-03
Protocol: (§3) Epitope binning was characterized by the bio-layer interferometry (BLI). 100 nM of human SLITRK6′ extracellular domain linked to his tag was immobilized on anti-his biosensor tips (Fortebio). The sensors were rinsed with the buffer (50 mM Tris-AcOH, pH 6 or 7.5, 0.05% v/v surfactant P20) for 30 seconds to remove the unbound molecules, then dipped in the 100 nM of antibody 1 solutions for 180 seconds and interspersed by a rinsing step in the buffer solution for 300 seconds. After that, the sensors were dipped in the 100 nM of antibody 2 solutions. The epitope cluster was calculated using ForteBio Data Acquisition 6.3 software.

epitope binning signal | Binder
0.0192 | B1
0.0077 | B2
0.0231 | B3

molecular target: T2, human SLITRK6 on cells; assay: flow cytometry on SCC-4 cells
Protocol: as §1

EC50 [nM] | Binder
0.44 | B1
0.27 | B2
0.23 | B3

molecular target: T2, human SLITRK6 on cells; assay: flow cytometry on 293F-SLITRK6-C9 cells
Protocol: as §2

EC50 [nM] | Binder
1.32 | B4
1.35 | B5
1.77 | B1
1.33 | B2
1.79 | B6
1.6 | B7
1.32 | B3
1.09 | B8
0.79 | B9

molecular target: T2, human SLITRK6 on cells; assay: flow cytometry on SW780 cells; remark: another data set of the same source
Protocol: as §1

EC50 [nM] | Binder
0.61 | B1
0.41 | B2
0.45 | B3

molecular target: T1, human SLITRK6 extracellular domain …; assay: BLI binning on huSLITRK6-his; Ab1 = row antibody first, then Ab2 (competitor) = phA290
Protocol: as §3

epitope binning signal | Binder
0.326 | B1
0.299 | B2
0.302 | B3

molecular target: T1, human SLITRK6 extracellular domain …; assay: BLI binning on huSLITRK6-his; Ab1 = row antibody first, then Ab2 (competitor) = hu1H2-03
Protocol: as §3

epitope binning signal | Binder
0.0244 | B1
0.0113 | B2
0.0288 | B3

molecular target: T3, cynomolgus monkey SLITRK6 extracellular domain linked to his tag (cynomolgus monkey, UniProt G7PVK4 27-608); assay: BLI; antigen ECD-his on anti-his tips, antibody as analyte; 1:1 fit;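 also: antibody at several concentrations, 180 s association then 300 s dissociation in Tris buffer at pH 6 or 7.5, rate constants from global fitting, KD computed as koff/kon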
T3 construct: extracellular domain; also called cynoSLITRK6; Cyno SLITRK6; not shown: his tag

Kd [nM] | koff [s⁻¹] | kon [M⁻¹ s⁻¹] | Binder
0.965 | 0.000329 | 341000 | B1
1.27 | 0.000444 | 348000 | B2
1.36 | 0.000513 | 376000 | B3

molecular target: T1, human SLITRK6 extracellular domain …; assay: as above
Protocol: Binding kinetic of antibody-antigen was characterized by the bio-layer interferometry (BLI). 100 nM of SLITRK6′ extracellular domain linked to his tag was immobilized on anti-his biosensor tips (Fortebio). The sensors were rinsed with the buffer (50 mM Tris-AcOH, pH 6 or 7.5, 0.05% v/v surfactant P20) for 10 min to remove the unbound molecules, then dipped in the antibody solutions at different concentrations for 180 seconds and interspersed by a rinsing step in the buffer solution for 300 seconds. Binding affinity was calculated using ForteBio Data Acquisition 6.3 software (ForteBio) and was derived by fitting the kinetic data to a 1:1 Langmuir binding model utilizing global fitting algorithms. The dissociation or association equilibrium constant KD was calculated from the binding rate constants as KD=koff/kₒₙ(where koff and kₒₙ represent the dissociation kinetic constant and the association kinetic constant, respectively).

Kd [nM] | koff [s⁻¹] | kon [M⁻¹ s⁻¹] | Binder
0.212 | 8.26e-05 | 390000 | B1
0.92 | 0.000441 | 480000 | B2
0.916 | 0.00044 | 480000 | B3

molecular target: T2, human SLITRK6 on cells; assay: flow cytometry on 293F-huSLITRK6-C9 cells
Protocol: The binding activity of mAbs was evaluated by flow cytometer (Beckman, Cytoflex). Specifically, cells were incubated with 50 μL of mAbs or ADCs in series dilutions in PBS containing 1% BSA at 4° C. for 30 min. The cells were washed twice with PBS containing 1% BSA, stained with PE-conjugated anti human Fc in PBS containing 1% BSA and then incubated at 4° C. for 20 min. After that the cells were washed twice with PBS and analyzed by a flow cytometer.

EC50 [nM] | Binder
1.77 | B1
1.33 | B2
1.32 | B3

molecular target: T1, human SLITRK6 extracellular domain …; assay: BLI binning on huSLITRK6-his; Ab1 = row antibody first, then Ab2 (competitor) = hu1H2-13
Protocol: as §3

epitope binning signal | Binder
0.0268 | B1
0.0122 | B2
0.0284 | B3

molecular target: T3, cynomolgus monkey SLITRK6 extracellular …; assay: ELISA, coated antigen
Protocol: (§4) First, a purified antigen was adsorbed to the surface of a PVC 96-well plate for ELISA at 4° C. overnight, the plate was washed twice by filling the wells with 350 μL TBST buffer (200 mM Sodium Chloride, 20 mM Tris, 0.05% Tween-20, pH 8). The surface of the solid phase having no antigen adsorbed thereto was covered with BSA. After washing the surface with TBST buffer, the surface was incubated with a serially diluted mAb as a primary antibody to bind to the antigen for 1 hour at room temperature. The plate was washed twice with TBST buffer and added an antibody labeled with an enzyme as a secondary antibody to incubate for 1 hour at room temperature.

EC50 [nM] | Binder
0.04 | B1
0.05 | B2
0.05 | B3

molecular target: T1, human SLITRK6 extracellular domain …; assay: ELISA, coated antigen
Protocol: as §4

EC50 [nM] | Binder
0.04 | B1
0.04 | B2
0.07 | B3

molecular target: T1, human SLITRK6 extracellular domain …; assay: BLI binning on huSLITRK6-his; Ab1 = row antibody first, then Ab2 (competitor) = phA108
Protocol: as §3

epitope binning signal | Binder
0.323 | B1
0.304 | B2
0.299 | B3

molecular target: T2, human SLITRK6 on cells; assay: flow cytometry on RT112/84 cells
Protocol: as §1

EC50 [nM] | Binder
0.35 | B1
0.23 | B2
0.17 | B3

molecular target: T2, human SLITRK6 on cells; assay: flow cytometry on CHP-212 cells; remark: another data set of the same source
Protocol: as §2

EC50 [nM] | Binder
0.49 | B4
0.4 | B5
0.37 | B1
0.24 | B2
0.65 | B6
0.5 | B7
0.22 | B3
0.14 | B8
0.13 | B9
